Data taken from paper PMC6906086.

B1: AT-rich 14-mer (dsDNA)
DNA 1: CGCGCATATATGCG
DNA 2: CGCATATATGCGCG
B2: leuS site (dsDNA)
DNA 1: AATTCGGCAAAATCGGTAAG
DNA 2: CTTACCGATTTTGCCGAATT

Legend:
Lsr2BD WT = Lsr2BD WT (Mycobacterium tuberculosis H37Rv, UniProt P9WIP7 66-112); test: fluorescence anisotropy; pH 7.5; 4 nM DNA; settings: protein: recombinant; tags: 6xHis; label: 5' Alexa Fluor 488; blunt
Lsr2 = Lsr2 (Mycobacterium tuberculosis H37Rv, UniProt P9WIP7 1-112); test: EMSA; 0.95-7.6 uM Lsr2; settings: protein: recombinant; (pET15-TEV, Ni-NTA); chain copies: 2; blunt

| Binder | Kd (Lsr2BD WT) | binding result (Lsr2) |
| --- | --- | --- |
| B1 | 210 ± 60 nM |  |
| B2 |  | binds |
